# Assay results taken from the supplement of paper PMC10567573.
# B1: POMT2 (parent)
# chain: LRGGGQVLLGWTLHYFPFFLMGRV
# B2: GAGE1 (parent)
# chain: RPRRYVQPPEMIGPMRPEQFSDEV
# Variants of: B1
# Assay: protein stability index of a GFP-peptide fusion (GPS, HEK-293T) (PSI 1-6); higher = more stable
# Details: c terminus: a fixed tail appended
# 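Further: lentivirally expressed fusions sorted by FACS into six bins by GFP to DsRed ratio, PSI derived from sequencing read proportions per bin multiplied by bin number.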
row,Variant,protein stability index
1,L20W,2.38
2,L20P,5.95
3,L20F,4.18
4,L20N,3.25
5,L20S,1.7
6,G10V,2.29
7,G10I,1.92
8,G10Q,3.64
9,G10S,3.85
10,G10D,3.44
11,G10T,2.89
12,G10Y,3.25
13,G10P,3.23
14,G10F,3.45
15,G10N,1.97
16,G10W,2.32
17,F16H,3.2
18,F16T,3.4
19,F16E,3.44
20,F16Q,2.26
21,F16G,3.06
22,M21S,2.79
23,M21W,4.41
24,M21N,1.43

row,Variant,protein stability index
1,M21K,2.16
2,M21A,3.45
3,R23C,2.79
4,L8V,1.64
5,L8Y,3.82
6,L8N,3
7,L8A,2.97
8,L8R,3.14
9,R2P,2.6
10,R2D,3.49
11,R2S,2.59
12,R2W,3.48
13,R2K,2.04
14,R2Y,2.82
15,R2T,1.36
16,R2L,2.63
17,R2Q,1.79
18,L1R,3.02
19,L1A,3.17
20,L1E,2.74
21,L1F,3.06
22,L1S,2.23
23,L1G,2.56
24,L1D,2.89

row,Variant,protein stability index
1,L9C,1.75
2,L9F,2.91
3,L9E,1.89
4,L9T,2.66
5,L9A,3.06
6,L9N,2.66
7,L9M,3.23
8,L9P,2.59
9,L9H,1.91
10,L9Q,1.61
11,G22C,1.58
12,G22D,3.12
13,G22P,2.64
14,G22Q,1.28
15,G22A,3.58
16,G22L,3.83
17,P17F,2.59
18,P17M,4.38
19,P17N,2.79
20,P17E,1.35
21,P17V,2.54
22,P17C,2.18
23,P17R,3.18
24,P17K,2.55

row,Variant,protein stability index
1,P17Q,4.16
2,P17D,4.4
3,P17W,3.06
4,P17I,2.09
5,V7W,2.36
6,V7K,4.17
7,V7T,1.32
8,V7Y,4.03
9,V7A,2.26
10,V7Q,1.21
11,V7R,2.7
12,V7G,3.97
13,V7C,1.26
14,V7M,2.07
15,G3S,1.68
16,G3R,2.12
17,G3Q,2.94
18,G3Y,4.15
19,G3I,2.59
20,G3N,2.48
21,G3W,5.12
22,G3M,1.82
23,G4M,3.71
24,G4D,2.16

row,Variant,protein stability index
1,G4H,3.5
2,G4Y,2.25
3,G4R,1.38
4,G4K,3.19
5,G4L,1.27
6,G4F,1.41
7,G4V,2.52
8,G4W,1.47
9,F19W,3.22
10,F19N,2.04
11,F19Q,4.97
12,F19Y,2.17
13,F19A,2.89
14,F19G,4.57
15,F19S,3.98
16,Q6K,2.02
17,Q6P,3.06
18,Q6I,2.01
19,Q6D,1.69
20,Q6L,2.48
21,Q6F,2.24
22,H14D,4.14
23,H14Y,3.36
24,H14F,3.28

row,Variant,protein stability index
1,H14P,2.43
2,L13C,1.51
3,L13E,2.93
4,L13S,3.02
5,L13W,3.5
6,L13P,2.64
7,L13D,1.29
8,Y15T,1.39
9,Y15W,2.28
10,Y15K,2.92
11,Y15I,4.09
12,Y15E,2.31
13,Y15R,2.02
14,Y15D,1.72
15,G5T,2.95
16,G5Y,3.6
17,G5N,3.2
18,G5D,3.03
19,G5E,3.02
20,G5I,4.58
21,W11T,2.09
22,W11R,2.67
23,W11H,2.1
24,W11K,3.25

row,Variant,protein stability index
1,W11M,1.04
2,W11S,1.38
3,W11Q,3
4,W11N,4.22
5,W11A,1.93
6,W11C,3.48
7,W11E,1.74
8,W11Y,1.2
9,F18W,1.2
10,F18N,2.04
11,F18E,4.02
12,F18Y,1.42
13,F18V,3.11
14,F18T,1.98
15,T12H,2.35
16,T12Y,2.7
17,T12I,3.35
18,T12V,3.16
19,T12L,1.93
20,T12A,2.59
21,T12S,2.1

# Variants of: B2
# Assay: as above
# Details: c terminus: a fixed tail appended
row,Variant,protein stability index
1,E18S,3.33
2,E18K,3.43
3,E18V,3.32
4,E18P,3.6
5,E18R,3.57
6,E18A,3.81
7,E18T,3.84
8,E18W,3.16
9,E18D,3.48
10,E18I,3.13
11,E18C,3.21
12,E18L,3.52
13,E18G,3.86
14,E18Q,3.56
15,E18Y,3.51
16,E18M,3.45
17,E18N,3.66
18,E18F,3.34
19,E18H,3.46
20,D22Q,3.11
21,D22K,3.88
22,D22G,3.62
23,D22E,3.83
24,D22R,3.5
25,D22I,1.97

row,Variant,protein stability index
1,D22S,3.95
2,D22W,2.53
3,D22V,2.9
4,D22M,3.06
5,D22C,3.14
6,D22P,3.95
7,D22A,3.87
8,D22F,2.16
9,D22H,3.29
10,D22N,3.23
11,D22L,2.6
12,D22Y,2.77
13,D22T,3.76
14,E23S,3.68
15,E23T,3.75
16,E23N,3.42
17,E23L,3.08
18,E23D,3.77
19,E23P,3.63
20,E23M,2.85
21,E23W,2.95
22,E23C,3.58
23,E23H,3.6
24,E23Y,2.76
25,E23I,2.92

row,Variant,protein stability index
1,E23V,3.77
2,E23Q,3.63
3,E23K,3.65
4,E23R,3.85
5,E23F,2.98
6,E23A,3.59
7,E23G,3.46
8,F20M,4.08
9,F20Q,4.84
10,F20R,4.64
11,F20T,4.62
12,F20N,4.8
13,F20I,4.31
14,F20K,4.92
15,F20L,4.5
16,F20C,4.64
17,F20W,3.94
18,F20A,4.98
19,F20P,4.72
20,F20V,4.71
21,F20E,4.97
22,F20S,4.42
23,F20Y,3.82
24,F20G,4.85
25,F20H,4.04

row,Variant,protein stability index
1,F20D,4.91
2,P17H,3.92
3,P17T,3.85
4,P17Q,4.15
5,P17Y,3.36
6,P17M,3.88
7,P17E,4.33
8,P17S,4.39
9,P17A,3.8
10,P17N,4.09
11,P17F,3.58
12,P17W,3.66
13,P17D,4.43
14,P17K,4.14
15,P17R,3.96
16,P17L,3.97
17,P17I,3.72
18,P17V,4.43
19,P17C,3.79
20,P17G,4.55
21,V24D,4.09
22,V24W,4.01
23,V24M,3.74
24,V24E,4.17
25,V24Y,3.94

row,Variant,protein stability index
1,V24L,3.74
2,V24K,4.5
3,V24Q,4.18
4,V24P,4.06
5,V24H,4.46
6,V24R,4.47
7,V24S,4.21
8,V24C,3.35
9,V24F,2.74
10,V24I,3.51
11,V24T,4.17
12,V24G,3.58
13,V24A,4.52
14,V24N,4.2
15,Q19W,3.12
16,Q19K,3.98
17,Q19F,3.62
18,Q19N,3.79
19,Q19L,3.63
20,Q19T,4.09
21,Q19P,4.11
22,Q19E,3.51
23,Q19G,4.28
24,Q19M,3.58
25,Q19D,3.69

row,Variant,protein stability index
1,Q19Y,3.92
2,Q19I,3.78
3,Q19S,3.82
4,Q19R,3.71
5,Q19A,3.71
6,Q19V,3.78
7,Q19C,4.16
8,Q19H,3.62
9,S21R,4.11
10,S21V,3.64
11,S21Q,3.79
12,S21C,4.15
13,S21W,3.01
14,S21F,2.97
15,S21T,3.71
16,S21K,4
17,S21P,3.99
18,S21M,3.44
19,S21I,2.9
20,S21L,3.48
21,S21A,3.69
22,S21Y,3.63
23,S21H,3.55
24,S21D,3.98
25,S21G,4.17

row,Variant,protein stability index
1,S21N,3.87
2,S21E,3.73
3,R16G,4.17
4,R16N,4.31
5,R16D,3.84
6,R16M,3.88
7,R16H,4.29
8,R16K,3.94
9,R16Q,4.26
10,R16S,3.87
11,R16W,3.28
12,R16L,3.5
13,R16V,4.16
14,R16I,4.44
15,R16E,4.3
16,R16F,3.8
17,R16Y,4.02
18,R16T,3.8
19,R16P,4.35
